Test results reported in article PMC11574045, “A cofactor-induced repressive type of transcription factor condensation can be induced by synthetic peptides to suppress tumorigenesis” (The EMBO Journal, 2024).

B1: RNF14 (protein, UniProt Q9UBS8 1-474, looked up)
E3 ubiquitin-protein ligase …: MSSEDREAQEDELLALASIYDGDEFRKAESVQGGETRIYLDLPQNFKIFVSGNSNECLQNSGFEYTICFLPPLVLNFELPPDYPSSSPPSFTLSGKWLSPTQLSALCKHLDNLWEEHRGSVVLFAWMQFLKEETLAYLNIVSPFELKIGSQKKVQRRTAQASPNTELDFGGAAGSDVDQEEIVDERAVQDVESLSNLIQEILDFDQAQQIKCFNSKLFLCSICFCEKLGSECMYFLECRHVYCKACLKDYFEIQIRDGQVQCLNCPEPKCPSVATPGQVKELVEAELFARYDRLLLQSSLDLMADVVYCPRPCCQLPVMQEPGCTMGICSSCNFAFCTLCRLTYHGVSPCKVTAEKLMDLRNEYLQADEANKRLLDQRYGKRVIQKALEEMESKEWLEKNSKSCPCCGTPIEKLDGCNKMTCTGCMQYFCWICMGSLSRANPYKHFNDPGSPCFNRLFYAVDVDDDIWEDEVED
B2: BATF3 (protein, UniProt Q9NR55 1-127, looked up)
Basic leucine zipper …: MSQGLPAAGSVLQRSVAAPGNQPQPQPQQQSPEDDDRKVRRREKNRVAAQRSRKKQTQKADKLHEEYESLEQENTMLRREIGKLTEELKHLTEALKEHEKMCPLLLCPMNFVPVPPRPDPVAGCLPR
B3: RNF2 (protein, UniProt Q99496 2-336, looked up)
E3 ubiquitin-protein ligase …: SQAVQTNGTQPLSKTWELSLYELQRTPQEAITDGLEIVVSPRSLHSELMCPICLDMLKNTMTTKECLHRFCADCIITALRSGNKECPTCRKKLVSKRSLRPDPNFDALISKIYPSRDEYEAHQERVLARINKHNNQQALSHSIEEGLKIQAMNRLQRGKKQQIENGSGAEDNGDSSHCSNASTHSNQEAGPSNKRTKTSDDSGLELDNNNAAMAIDPVMDGASEIELVFRPHPTLMEKDDSAQTRYIKTSGNATVDHLSKYLAVRLALEELRSKGESNQMNLDTASEKQYTIYIATASGQFTVLNGSFSLELVSEKYWKVNKPMELYYAPTKEHK
B4: ROG (protein, UniProt Q9Y2Y4 1-487, looked up)
Zinc finger and BTB …: MSLPPIRLPSPYGSDRLVQLAARLRPALCDTLITVGSQEFPAHSLVLAGVSQQLGRRGQWALGEGISPSTFAQLLNFVYGESVELQPGELRPLQEAARALGVQSLEEACWRARGDRAKKPDPGLKKHQEEPEKPSRNPERELGDPGEKQKPEQVSRTGGREQEMLHKHSPPRGRPEMAGATQEAQQEQTRSKEKRLQAPVGQRGADGKHGVLTWLRENPGGSEESLRKLPGPLPPAGSLQTSVTPRPSWAEAPWLVGGQPALWSILLMPPRYGIPFYHSTPTTGAWQEVWREQRIPLSLNAPKGLWSQNQLASSSPTPGSLPQGPAQLSPGEMEESDQGHTGALATCAGHEDKAGCPPRPHPPPAPPARSRPYACSVCGKRFSLKHQMETHYRVHTGEKPFSCSLCPQRSRDFSAMTKHLRTHGAAPYRCSLCGAGCPSLASMQAHMRGHSPSQLPPGWTIRSTFLYSSSRPSRPSTSPCCPSSSTT
B5: RSF1 (protein, UniProt Q96T23 1-1441, looked up)
Remodeling and spacing factor …: MATAAAAAAVMAPPGCPGSCPNFAVVCSFLERYGPLLDLPELPFPELERVLQAPPPDVGNGEVPKELVELHLKLMRKIGKSVTADRWEKYLIKICQEFNSTWAWEMEKKGYLEMSVECKLALLKYLCECQFDDNLKFKNIINEEDADTMRLQPIGRDKDGLMYWYQLDQDHNVRMYIEEQDDQDGSSWKCIVRNRNELAETLALLKAQIDPVLLKNSSQQDNSSRESPSLEDEETKKEEETPKQEEQKESEKMKSEEQPMDLENRSTANVLEETTVKKEKEDEKELVKLPVIVKLEKPLPENEEKKIIKEESDSFKENVKPIKVEVKECRADPKDTKSSMEKPVAQEPERIEFGGNIKSSHEITEKSTEETEKLKNDQQAKIPLKKREIKLSDDFDSPVKGPLCKSVTPTKEFLKDEIKQEEETCKRISTITALGHEGKQLVNGEVSDERVAPNFKTEPIETKFYETKEESYSPSKDRNIITEGNGTESLNSVITSMKTGELEKETAPLRKDADSSISVLEIHSQKAQIEEPDPPEMETSLDSSEMAKDLSSKTALSSTESCTMKGEEKSPKTKKDKRPPILECLEKLEKSKKTFLDKDAQRLSPIPEEVPKSTLESEKPGSPEAAETSPPSNIIDHCEKLASEKEVVECQSTSTVGGQSVKKVDLETLKEDSEFTKVEMDNLDNAQTSGIEEPSETKGSMQKSKFKYKLVPEEETTASENTEITSERQKEGIKLTIRISSRKKKPDSPPKVLEPENKQEKTEKEEEKTNVGRTLRRSPRISRPTAKVAEIRDQKADKKRGEGEDEVEEESTALQKTDKKEILKKSEKDTNSKVSKVKPKGKVRWTGSRTRGRWKYSSNDESEGSGSEKSSAASEEEEEKESEEAILADDDEPCKKCGLPNHPELILLCDSCDSGYHTACLRPPLMIIPDGEWFCPPCQHKLLCEKLEEQLQDLDVALKKKERAERRKERLVYVGISIENIIPPQEPDFSEDQEEKKKDSKKSKANLLERRSTRTRKCISYRFDEFDEAIDEAIEDDIKEADGGGVGRGKDISTITGHRGKDISTILDEERKENKRPQRAAAARRKKRRRLNDLDSDSNLDEEESEDEFKISDGSQDEFVVSDENPDESEEDPPSNDDSDTDFCSRRLRRHPSRPMRQSRRLRRKTPKKKYSDDDEEEESEENSRDSESDFSDDFSDDFVETRRRRSRRNQKRQINYKEDSESDGSQKSLRRGKEIRRVHKRRLSSSESEESYLSKNSEDDELAKESKRSVRKRGRSTDEYSEADEEEEEEEGKPSRKRLHRIETDEEESCDNAHGDANQPARDSQPRVLPSEQESTKKPYRIESDEEEDFENVGKVGSPLDYSLVDLPSTNGQSPGKAIENLIGKPTEKSQTPKDNSTASASLASNGTSGGQEAGAPEEEEDELLRVTDLVDYVCNSEQL
B6: RNF6 (protein, UniProt Q9Y252 1-685, looked up)
E3 ubiquitin-protein ligase …: MNQSRSRSDGGSEETLPQDHNHHENERRWQQERLHREEAYYQFINELNDEDYRLMRDHNLLGTPGEITSEELQQRLDGVKEQLASQPDLRDGTNYRDSEVPRESSHEDSLLEWLNTFRRTGNATRSGQNGNQTWRAVSRTNPNNGEFRFSLEIHVNHENRGFEIHGEDYTDIPLSDSNRDHTANRQQRSTSPVARRTRSQTSVNFNGSSSNIPRTRLASRGQNPAEGSFSTLGRLRNGIGGAAGIPRANASRTNFSSHTNQSGGSELRQREGQRFGAAHVWENGARSNVTVRNTNQRLEPIRLRSTSNSRSRSPIQRQSGTVYHNSQRESRPVQQTTRRSVRRRGRTRVFLEQDRERERRGTAYTPFSNSRLVSRITVEEGEESSRSSTAVRRHPTITLDLQVRRIRPGENRDRDSIANRTRSRVGLAENTVTIESNSGGFRRTISRLERSGIRTYVSTITVPLRRISENELVEPSSVALRSILRQIMTGFGELSSLMEADSESELQRNGQHLPDMHSELSNLGTDNNRSQHREGSSQDRQAQGDSTEMHGENETTQPHTRNSDSRGGRQLRNPNNLVETGTLPILRLAHFFLLNESDDDDRIRGLTKEQIDNLSTRHYEHNSIDSELGKICSVCISDYVTGNKLRQLPCMHEFHIHCIDRWLSENCTCPICRQPVLGSNIANNG
B7: R-LIM (protein, UniProt Q9NVW2 1-624, looked up)
E3 ubiquitin-protein ligase …: MENSDSNDKGSGDQSAAQRRSQMDRLDREEAFYQFVNNLSEEDYRLMRDNNLLGTPGESTEEELLRRLQQIKEGPPPQNSDENRGGDSSDDVSNGDSIIDWLNSVRQTGNTTRSGQRGNQSWRAVSRTNPNSGDFRFSLEINVNRNNGSQNSENENEPSARRSSGENVENNSQRQVENPRSESTSARPSRSERNSTEALTEVPPTRGQRRARSRSPDHRRTRARAERSRSPLHPMSEIPRRSHHSISSQTFEHPLVNETEGSSRTRHHVTLRQQISGPELLSRGLFAASGTRNASQGAGSSDTAASGESTGSGQRPPTIVLDLQVRRVRPGEYRQRDSIASRTRSRSQTPNNTVTYESERGGFRRTFSRSERAGVRTYVSTIRIPIRRILNTGLSETTSVAIQTMLRQIMTGFGELSYFMYSDSDSEPTGSVSNRNMERAESRSGRGGSGGGSSSGSSSSSSSSSSSSSSSSSSSSPSSSSGGESSETSSDLFEGSNEGSSSSGSSGARREGRHRAPVTFDESGSLPFLSLAQFFLLNEDDDDQPRGLTKEQIDNLAMRSFGENDALKTCSVCITEYTEGNKLRKLPCSHEYHVHCIDRWLSENSTCPICRRAVLASGNRESVV

Tested on: HEK293FT cells transfected with TF library
Assay: Screening of TF condensates based on fluorescent puncta
Assay type: cell-based
Conditions: Figure 1B numerical data; TF library screen, one value per transcriptional factor
In short: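 Condensate formation is scored as Alexa 488-labelled puncta after Flag- or GAL4-tag immunostaining of fixed HEK293FT cells expressing individual TFs, with a 12 h glucose-free or glucose-containing culture preceding fixation.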

| Molecule | Z score of condensed fraction |
| --- | --- |
| B1 | 0.4543 |
| B2 | -0.4698 |
| B3 | -0.7099 |
| B4 | -0.6823 |
| B5 | -1.08 |
| B6 | -1.108 |
| B7 | -0.6236 |
